B1: SDGF-TB1G1 (TB1G1 displayed on 293F cells) [designed binder] / Biotinylated His-Avi-TEAD1(194–411) [modified: biotin (BirA-500 kit); biotin (BirA-500 kit)] [not stated] (parent complex)
chain 1: PDEYIERAKECCKKGDIQCCLRYFEESGDPNVMLICLFCP
chain 2: RSIGTTKLRLVEFSAFLEQQRDPDSYNKHLFVHIGHANHSYSDPLLESVDIRQIYDKFPEKKGGLKELFGKGPQNAFFLVKFWADLNCNIQDDAGAFYGVTSQYESSENMTVTCSTKVCSFGKQVVEKVETEYARFENGRFVYRINRSPMCEYMINFIHKLKHLPEKYMMNSVLENFTILLVVTNRDTQETLLCMACVFEVSNSEHGAQHHIYRLVKD

Variants of: B1
Experiment: mammalian (293F) surface display of a site-saturation mutagenesis library (every non-Cys single substitution), FACS sorting on biotinylated TEAD1 YBD, two sorting rounds, Illumina sequencing with perfect-match mapping; 20 nM biotinylated TEAD, monovalent 2-step stain (TEAD alone 30 min at 4 °C, dilute, pellet, then 20 nM streptavidin-Alexa Fluor 647), flow sorting on a BD Aria

Q: For chain 1 VDEYIERAKECCKKGDIQCCLRYFEESGDPNVMLICLFCP [chain 1 P1V], which enrichment is on record?
A: Its enrichment is -0.595 log2 (fold change of variant abundance after two TEAD sorts vs input, normalised to TB1G1).

Q: For chain 1 PDEYIEEAKECCKKGDIQCCLRYFEESGDPNVMLICLFCP [chain 1 R7E], which enrichment is on record?
A: Its enrichment is -0.163 log2 (fold change of variant abundance after two TEAD sorts vs input, normalised to TB1G1).

Q: Which enrichment does the source give for chain 1 PDEYIDRAKECCKKGDIQCCLRYFEESGDPNVMLICLFCP [chain 1 E6D] here?
A: Its enrichment is -0.602 log2 (fold change of variant abundance after two TEAD sorts vs input, normalised to TB1G1).

Q: With chain 1 PDEDIERAKECCKKGDIQCCLRYFEESGDPNVMLICLFCP [chain 1 Y4D] as the variant, how does the enrichment read?
A: Its enrichment is -1.79 log2 (fold change of variant abundance after two TEAD sorts vs input, normalised to TB1G1).

Q: chain 1 PTEYIERAKECCKKGDIQCCLRYFEESGDPNVMLICLFCP [chain 1 D2T] was tested. Which enrichment did it give?
A: The enrichment was -0.52 log2 (fold change of variant abundance after two TEAD sorts vs input, normalised to TB1G1).

Q: How did the enrichment turn out when chain 1 LDEYIERAKECCKKGDIQCCLRYFEESGDPNVMLICLFCP [chain 1 P1L] was run?
A: Its enrichment is -2.9 log2 (fold change of variant abundance after two TEAD sorts vs input, normalised to TB1G1).

Q: Which enrichment does the source give for chain 1 PDEYINRAKECCKKGDIQCCLRYFEESGDPNVMLICLFCP [chain 1 E6N] here?
A: Its enrichment is -0.816 log2 (fold change of variant abundance after two TEAD sorts vs input, normalised to TB1G1).

Q: Which enrichment does the source give for chain 1 PDKYIERAKECCKKGDIQCCLRYFEESGDPNVMLICLFCP [chain 1 E3K] here?
A: Its enrichment is -0.5 log2 (fold change of variant abundance after two TEAD sorts vs input, normalised to TB1G1).

Q: Which enrichment does the source give for chain 1 PDELIERAKECCKKGDIQCCLRYFEESGDPNVMLICLFCP [chain 1 Y4L] here?
A: The enrichment was -1.81 log2 (fold change of variant abundance after two TEAD sorts vs input, normalised to TB1G1).

Q: With chain 1 PDEYIERAHECCKKGDIQCCLRYFEESGDPNVMLICLFCP [chain 1 K9H] as the variant, how does the enrichment read?
A: Its enrichment is -1.5 log2 (fold change of variant abundance after two TEAD sorts vs input, normalised to TB1G1).

Q: For chain 1 PDEYIELAKECCKKGDIQCCLRYFEESGDPNVMLICLFCP [chain 1 R7L], which enrichment is on record?
A: The enrichment was -0.388 log2 (fold change of variant abundance after two TEAD sorts vs input, normalised to TB1G1).

Q: With chain 1 PDNYIERAKECCKKGDIQCCLRYFEESGDPNVMLICLFCP [chain 1 E3N] as the variant, how does the enrichment read?
A: The enrichment was 0.579 log2 (fold change of variant abundance after two TEAD sorts vs input, normalised to TB1G1).

Q: Which enrichment does the source give for chain 1 PDWYIERAKECCKKGDIQCCLRYFEESGDPNVMLICLFCP [chain 1 E3W] here?
A: Its enrichment is -1.4 log2 (fold change of variant abundance after two TEAD sorts vs input, normalised to TB1G1).

Q: Which enrichment does the source give for chain 1 PHEYIERAKECCKKGDIQCCLRYFEESGDPNVMLICLFCP [chain 1 D2H] here?
A: Its enrichment is -1.05 log2 (fold change of variant abundance after two TEAD sorts vs input, normalised to TB1G1).

Q: With chain 1 PFEYIERAKECCKKGDIQCCLRYFEESGDPNVMLICLFCP [chain 1 D2F] as the variant, how does the enrichment read?
A: Its enrichment is -3.41 log2 (fold change of variant abundance after two TEAD sorts vs input, normalised to TB1G1).

Q: chain 1 PDEYIERFKECCKKGDIQCCLRYFEESGDPNVMLICLFCP [chain 1 A8F] was tested. Which enrichment did it give?
A: Its enrichment is -4.33 log2 (fold change of variant abundance after two TEAD sorts vs input, normalised to TB1G1).

Q: How did the enrichment turn out when chain 1 PDEYIRRAKECCKKGDIQCCLRYFEESGDPNVMLICLFCP [chain 1 E6R] was run?
A: The enrichment was -1.78 log2 (fold change of variant abundance after two TEAD sorts vs input, normalised to TB1G1).

Q: How did the enrichment turn out when chain 1 PDEYIERADECCKKGDIQCCLRYFEESGDPNVMLICLFCP [chain 1 K9D] was run?
A: Its enrichment is -0.576 log2 (fold change of variant abundance after two TEAD sorts vs input, normalised to TB1G1).

Q: chain 1 PDEYIERWKECCKKGDIQCCLRYFEESGDPNVMLICLFCP [chain 1 A8W] was tested. Which enrichment did it give?
A: The enrichment was -5.46 log2 (fold change of variant abundance after two TEAD sorts vs input, normalised to TB1G1).

Q: With chain 1 PDEYIKRAKECCKKGDIQCCLRYFEESGDPNVMLICLFCP [chain 1 E6K] as the variant, how does the enrichment read?
A: Its enrichment is -1.13 log2 (fold change of variant abundance after two TEAD sorts vs input, normalised to TB1G1).

Q: Which enrichment does the source give for chain 1 PDEQIERAKECCKKGDIQCCLRYFEESGDPNVMLICLFCP [chain 1 Y4Q] here?
A: Its enrichment is 0.291 log2 (fold change of variant abundance after two TEAD sorts vs input, normalised to TB1G1).

Q: For chain 1 PDEYSERAKECCKKGDIQCCLRYFEESGDPNVMLICLFCP [chain 1 I5S], which enrichment is on record?
A: The enrichment was -2.04 log2 (fold change of variant abundance after two TEAD sorts vs input, normalised to TB1G1).

From paper PMC5740061 (Nature Communications, 2017)
